17 sequences from the DeepSol protein solubility set can be followed below.

The nature of this series: soluble on expression in E. coli; label from the status in PepcDB or PDB records.
“GPGSMMEPTRNAEYSKQEYWDRRYTEEEHYDWFPSVYPMCVAAAFETVEAVYRVQRSTGAFNGTLKVLHLGTGNSTLCADIRATYEAKYPTEDSRPYRLVQAATDYSAVVIDRMQAKYGLAHPLEDVHWVVADIRDLSRVREQFGPFFDVVLDKGTMDALQADKANQNMEDDIERMLCEVSRCVEGGAGTRVYRVFVQITWEIPYLRLYYTTRNATHTFAWGTNVTYRFLGESDMYRVYTYEVSPPSSE”: the “soluble on expression in E. coli” value is on record as “soluble”.

Regarding “MNVSVLNFGNTPVSFRQDGFLNATAIASHFGKLPKDYLKSEQTQQYISALAENLSVRRKILTEANQIVIVKRGGSEQGTWLHPKLAIHFARWLNPKFAVWCDEQIEILLNGKISDGIKTVTPKPTRALPDGLTGEQIEAVKKLHNALTKSAPKEAQARIAITLWSAVKSKFGCSYKEVPAEQFPEVLSVMGRVAVENGVLYGEVLDREPLPAPQPALPISGNALYDLAVAVRYGAWAIQMGRDVSLPLKQLGCKQAVTMWTVWAETRSRLKAAANALEALNAHADAEHAAKIRPMLPEIRNLSSV”, the “soluble on expression in E. coli” value is “not soluble”.

For “MAHHHHHHMKAASAAAPAAQTKAAAEAKAATATTAASSLSLSLLQYGASLYEAHTHLPEAAVARLPLNRYADYLRHFGFSMERESRGAAAPGTTLALDCTSPNHKTQAPLDGRWGKRVETDTSYDPVEVAGWGLPEALRCEADQQCNAVGSLSDATEWSAIAKQLVHPFMSVTWRQTATQCTMKKACCVYMWLCSHMTLQVSVPGAEEDAKEDSGGVSTVGLPSAAKAASLARKANRPARKVKEVPTTLEPAAPPDPLLVALQTRRAPAPVLADVYMHMLTSVGVLCEVVVGQLKGAAPEEAFEWSWNMVTVDGRQYLVDVSAALSNGVLRSAASYSDVPSSVAVPEAGKGQRAGNAAGRGKAATPSQSSPPAGSGAVPCSESVQLLPVTPERLRREFFFFAHPTYFLASHFPADPAKALVRTAMRAVQWGVRPRLTPAFYYYGLQLASHKTHSTFAASGSPSYVSFVNHHASTTELCCALYMGTLGTLPEDLSQTAPLGAEWVWHQREESTSTDTFTLTVPQAGYYVVVIGARPIRADPYSAVFTVAGETAFTPVVSYEMRVGFTPSSSPVLPRQYLSPSICRLITPLCSQILPGKHTFCVMPSCSNVLAVAVVKFVAAAATRTLLSLLPFQPRSAAFEGDVDVRSGECVEVWVLYGAPDRNGQELSQRAAAAAPPKAAATPCRSPTPAAKFKAADKKKREASAEHQQQLSALESQLAHLTQALHKGEVFQRCVGGIEVRHFVSPAVVGVIQPQPMVEQEQSITLRRLAGVTDALLREAEEVVRRQPAPVGSYFGAVEAAAAKS”, the “soluble on expression in E. coli” value is on record as “not soluble”.

Consider “MSYPIKSTLIILRGNSASGKTTIAKQLQEHFGQGTLLVSQDVVRRDMLRVHDTIGNLSHDLLFEITKYGKGKCEFVILEGILNSHRYGDMLKELIHLFEGNAYTYYFDLSLKETIRRHNTREKRHEFGEDSLQKWYNPHDTIEVTRETIFTDNLTQKDIFDAILNDVMVRKLEHHHHHH”, for which the “soluble on expression in E. coli” value is listed as “soluble”.

Turning to “MRGIHRLSALLVKSASQGKYCDGAGLWLNVRKDNTRSWFFRYTYHNKRREMGLGPVAQLSLKEARELAKHYSAILREGNDPIVFREQTVLKQQSNIFSEIATAAFESKKAELKNEGKNGRWFSPLELHVIPHIGSLSIEKLTANIIRNVLAPLWHEKADTARKALNRINICLKYAAALGLDVDLQACMKARALLGKPRATSTNIPAMPWQEVPAFYQSLDDKILSNLALKLLILTGVRSYPLRYLRLEQIDKDIWTIPKENMKGIVGKVSDFRVPLSHEALKMIEKSLPFEKNGFLFAGSSGKPISDVTLSKFMKDKGFDYRPHGFRSSLRDWIAETTSTPFEIAETVLAHSVGSSVTKAYMRTDFLEQRHTLMEQWAAFITGAT”, the “soluble on expression in E. coli” value is “not soluble”.

Turning to “MGSDKIHHHHHHMTLPISVFIITKNEEKHIAKTLASVKDMDEVILVDSGSTDKTLSIAQQFGATIFSHEWQGYAKQKQYAMSLCRNEWVLNLDGDEAINPQLIAAFKEIIEQDKADSVRFWRNDIFIGKPLSSLSKKPNNHRLYKKSKSFFDDSRLAHESATVDGKEIFINQVFDHYGYDSIAAITNKNNTYSTLKADEKFVKGKSFSHLKLFLIFPLVFIKEYLLQRKLFSGRRGFILAVMEAYYAFLKEAKLFENHQNKPN”, the “soluble on expression in E. coli” value is on record as “not soluble”.

“MISNQILQNTIEGLKGISRIDFCVLDTEGKALATTFEDTWNYESAVLSFVESPADSQVIQGCQFFKIFDEQQLEYVLLAGGESEDVYMLGKIAAFQVQSLLVAYKERFDKDNFIKNLLLDNLLLVDIYNRAKKLHIDTEAKRVIFIIETSHEKDSVALDNVRNLLGGKSRDFVTAVDEKNIIVVKELADKAGSRELEKMAKEMMEILRAESEDDKIHIAYGTVVNDIKEVSKSYKEAKLALDVGKIFFDEKDIVAYSTLGIGRLIYQLPIPLCKMFIKEIFEGKSPDEFDEETLTTINKFFENSLNVSETSRQLYIHRNTLVYRLDKLQKSTGLDLRVFEDAITFKIALMVVKYMKYMETLEY”: the “soluble on expression in E. coli” value is on record as “not soluble”.

Regarding “MRTSNYLLSTLKETPNDAEVVSHQLMLRAGMIRKLASGLYTWLPTGLRVLRKVENIVRQEIDNAGAVETLMPVVQPFELWEETGRSEKMGPELLRFTDRHVRPFVLSPTAEEVITSLVRNEVSSYKQLPLNLYQIQTKFRDERRPRFGVMRAREFCMMDAYSFDIDKAGLEKSYQAMHDAYCKAFDRMGLEYRPVLADSGAIGGSGSQEFHVLADSGEDLIAFSTESDYAANIEKAEALAPAVERAEPTQEMTLVDTPNAKTIAELVEQHGLPIEKTVKTLFVKASDEIDAPIIALIVRGDHELNEVKAENLPQVASPLEMASEEEIRELIGAGPGSLGPVGLELPFIVDRSVAVMSDFGAGANIDGKHYFGINWGRDVELGQVEDLRNVVEGDPSPCGKGTLMLK”, the “soluble on expression in E. coli” value is on record as “not soluble”.

Consider “MAHHHHHHMVQRTLLDFVRKKDPSPNVINVDAESDEQDEAASRKRRMQGVREPALAFTKPRTENKDDICCSNNFSALITDSGWRAFLQPLTSTTNFRNIEQFIEGEKTKGKVILPPSDLIFSAFNSTPLDRLKVVLLGQDPYHNIGQAHGLCFSVLPGVRPPPSLLNMYKELTTDISGFKSPPHGYLQCWAEQGVLMLNATLTVEAHQANSHAKCGWQAFTDGVIRLLSEKHQRPIVFLLWGGFARKKITLIDQKRHLVIENAHPSPLSAAKWWGSRPFSKCNAALTQLGHSPIDWSIPMSVERRH”, for which the “soluble on expression in E. coli” value is given as “not soluble”.

For “MKHFSVKRLLGLSSVLLVTLGASMHAQSYLPKHESVTLKNGLQVVSVPLENKTGVIEVDVLYKVGSRNETMGKSGIAHMLEHLNFKSTKNLKAGEFDKIVKRFGGVSNASTSFDITRYFIKTSQANLDKSLELFAETMGSLNLKEDEFLPERQVVAEERRWRTDNSPIGMLYFRFFNTAYVYHPYHWTPIGFMDDIQNWTLKDIKKFHSLYYQPKNAIVLVVGDVNSQKVFELSKKHFESLKNLDEKAIPTPYMKEPKQDGARTAVVHKDGVHLEWVALGYKVPAFKHKDQVALDALSRLLGEGKSSWLQSELVDKKRLASQAFSHNMQLQDESVFLFIAGGNPNVKAEALQKEIVALLEKLKKGEITQAELDKLKINQKADFISNLESSSDVAGLFADYLVQNDIQGLTDYQRQFLDLKVSDLVRVANEYFKDTQSTTVFLKP”, the “soluble on expression in E. coli” value is recorded as “not soluble”.

As for “MGSDKIHHHHHHMLVASLVLLGLYDLFQAKHSILRNFPVIGHMRYLLEMIGPELHQYFVESDTDGKPINKNHRNYIYERAKEQNQTRPFGTQLNVYDDNYKWMQHSIYPAKKMDTPPRVVIGGKDCQQPYSASLFNISAMSFGALSKNAIQALNLGAKAGEFFHDTGEGGISEYHLQGGDLVWEIGTGYFGCRTGNGCFDAEKFKQKANWE”, the “soluble on expression in E. coli” value was “not soluble”.

In the case of “MGHHHHHHSHMSIPSSQYGFVFNKQSGLKLRNDLPVHKPKAGQLLLKVDAVGLCHSDLHVIYEGLDCGDNYVMGHEIAGTVAAVGDDVINYKVGDRVACVGPNGCGGCKYCRGAIDNVCKNAFGDWFGLGYDGGYQQYLLVTRPRNLSRIPDNVSADVAAASTDAVLTPYHAIKMAQVSPTSNILLIGAGGLGGNAIQVAKAFGAKVTVLDKKKEARDQAKKLGADAVYETLPESISPGSFSACFDFVSVQATFDVCQKYVEPKGVIMPVGLGAPNLSFNLGDLALREIRILGSFWGTTNDLDDVLKLVSEGKVKPVVRSAKLKELPEYIEKLRNNAYEGRVVFNP”, the “soluble on expression in E. coli” value is given as “soluble”.

As for “SNAPLKEQKVINTANIKTNSKLDLAEYENGLINIATQQFDTESHVLQLNQYIPEKLIDELVAKVEAPVLTNIIEQDYFGKQNSNELSLSGVMIGLAMSSSVSNEEAMSKGTEVAKQLIEAINKNDKYNKSPITFAIFKQESTSSLKNGTYIASATVQKNDTNLGNWSTIDEKSYSYPSDEFTQAHGEDNTKINNFAKEIKGFSNGDFIPVNAKVSYKKDQMDTLNMNIVIKYNGKTELMALTQLAAQGMLDKLPKDAKVQLQIKSESKIEAVIIKEKNSDKPFVSFL”, the “soluble on expression in E. coli” value is given as “soluble”.

Turning to “MWERSLRDTMRGRTSTLKVAILCFEKDRPKLEALKEILGRSYEVEFVDYSKDVWDDVLQYDCIVAYLASGIVVRGICGRLRGKWKDPAVIVLDKPLKHAVVMLGGHHGGNEVAKKLEEAGLKAVITTAMEFTEGYSVGVGFRKNATADEILEAIAMALEEVGGRMEEIRVISTVDAKRDSAIVEVANRLKRPLIFVRAEEINSMDIRETKAVKIGVKNVAEACAIYASNSGELILPKRVYGGVTVAIAW”, the “soluble on expression in E. coli” value is given as “not soluble”.

Take “SLSSLEGQENSFTINSVDMKSLPDWTVQNGKNLTLQCFADVSTTSHVKPQHQMLFYKDDVLFYNISSMKSTESYFIPEVRIYDSGTYKCTVIVNNKEKTTAEYQLLVEGVPSPRVTLDKKEAIQGGIVRVNCSVPEEKAPIHFTIEKLELNEKMVKLKREKNSRDQNFVILEFPVEEQDRVLSFRCQARIISGIHMQTSESTKSELVTVTESFSTPKFHISPTGMIMEGAQLHIKCTIQVTHLAQEFPEIIIQKDKAIVAHNRHGNKAVYSVMAMVEHSGNYTCKVESSRISKVSSIVVNITELFSKPELESSFTHLDQGERLNLSCSIPGAPPANFTIQKEDTIVSQTQDFTKIASKSDSGTYICTAGIDKVVKKSNTVQIVVCEMLS”: the “soluble on expression in E. coli” value was “soluble”.

Take “MQTVGVHSIVQQLHRNSIQFTDGYEVKEDIGVGSYSVCKRCIHKATNMEFAVKIIDKSKRDPTEEIEILLRYGQHPNIITLKDVYDDGKYVYVVTELMKGGELLDKILRQKFFSEREASAVLFTITKTVEYLHAQGVVHRDLKPSNILYVDESGNPESIRICDFGFAKQLRAENGLLMTPCYTANFVAPEVLERQGYDAACDIWSLGVLLYTMLTGYTPFANGPDDTPEEILARIGSGKFSLSGGYWNSVSDTAKDLVSKMLHVDPHQRLTAALVLRHPWIVHWDQLPQYQLNRQDAPHLVKGAMAATYSALNRNQSPVLEPVGRSTLAQRRGIKKITSTAL”: the “soluble on expression in E. coli” value was “soluble”.

Turning to “MQVNIILLAAGKGQRFQSSSPNKIGCATIKQLARINDKPLIVHSIDKLQPLLKNAYVHNFFVTLGANKNAIQTVLPQDISVIASQHWAEGMGHTLAESVHSIKATSSHVLVALADQALITTEHYQELLSASKEQPNKIIATLCEGQLMAPAIFPEKYFPLLVKIQGDKGAGKLLLQHAKKADAITCEDAKIDIDTFSDLERVRQHLEYALQDNQQSSL”, the “soluble on expression in E. coli” value is “not soluble”.
